From patent US20100227824A1 (SYMTHERA CANADA, published 2010) come the findings set out here.

Test [1] addresses T1, Eotaxin (CCL11) (UniProt P51671 24-97).
T1 construct: Bought chemokine
The experiment in a line: micro-array, biotinylated peptide on printed CK.

The target in test [2] is T2, BCA-1 (CXCL13) (UniProt O43927 23-109).
T2 construct: Bought chemokine
T2 sequence (looked up): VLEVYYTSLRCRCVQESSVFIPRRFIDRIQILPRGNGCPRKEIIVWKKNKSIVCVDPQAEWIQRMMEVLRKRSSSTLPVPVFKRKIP
The experiment in a line: micro-array, biotinylated peptide on printed CK.

Test [3] deals with T3, Eotaxin 3 (CCL26) (UniProt Q9Y258 24-94).
T3 construct: Bought chemokine
T3 sequence (looked up): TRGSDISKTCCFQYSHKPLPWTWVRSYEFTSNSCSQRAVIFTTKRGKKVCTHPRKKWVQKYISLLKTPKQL
The test is described as follows: micro-array, biotinylated peptide on printed CK.

Test [4] concerns the target T4, MCP-1 (CCL2) (UniProt P13500 24-99).
T4 construct: Bought chemokine
The experiment in a line: micro-array, biotinylated peptide on printed CK.

Another test deals with T5, GRO-β (CXCL2) (UniProt P19875 35-107).
T5 construct: Bought chemokine
T5 sequence (looked up): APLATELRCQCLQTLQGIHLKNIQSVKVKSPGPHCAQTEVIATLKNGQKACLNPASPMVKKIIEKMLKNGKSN
The experiment in a line: micro-array, biotinylated peptide on printed CK.

The target of test [5] is T6, Lymphotactin (XCL-1) (UniProt P47992 23-114, limits assumed).
T6 construct: Bought chemokine
T6 sequence (looked up): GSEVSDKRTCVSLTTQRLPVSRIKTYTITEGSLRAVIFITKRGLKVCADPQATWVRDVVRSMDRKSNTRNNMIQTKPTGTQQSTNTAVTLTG
The experiment in a line: micro-array, biotinylated peptide on printed CK.

The target in test [6] is T7, SDF-1α (CXCL12) (UniProt P48061-2 22-89).
T7 construct: Alpha isoform of CXCL12; also called SDFα
The test is described as follows: micro-array, biotinylated peptide on printed CK.

Test [7] addresses T8, Eotaxin 2 (CCL24) (UniProt O00175 27-104, limits assumed).
T8 construct: Bought chemokine
T8 sequence (looked up): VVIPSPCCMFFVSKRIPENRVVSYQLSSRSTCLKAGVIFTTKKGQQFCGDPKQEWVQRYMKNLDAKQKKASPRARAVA
The experiment in a line: micro-array, biotinylated peptide on printed CK.

The target of test [8] is T9, TECK (CCL25) (UniProt O15444 24-150).
T9 construct: Bought chemokine
T9 sequence (looked up): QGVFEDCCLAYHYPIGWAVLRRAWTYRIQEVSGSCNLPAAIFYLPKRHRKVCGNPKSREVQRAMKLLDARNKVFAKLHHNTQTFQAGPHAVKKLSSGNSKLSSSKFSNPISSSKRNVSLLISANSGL
The experiment in a line: micro-array, biotinylated peptide on printed CK.

In test [9] the target is T10, I-TAC (CXCL11) (UniProt O14625 22-94).
T10 construct: Bought chemokine; also called I-TACK
T10 sequence (looked up): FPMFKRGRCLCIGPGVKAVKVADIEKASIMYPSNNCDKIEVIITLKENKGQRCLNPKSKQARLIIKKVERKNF
The test is described as follows: micro-array, biotinylated peptide on printed CK.

The target in test [10] is T11, SDF-1β (CXCL12) (UniProt P48061 22-93).
T11 construct: Beta isoform of CXCL12; also called SDFβ
The experiment in a line: micro-array, biotinylated peptide on printed CK.

Test [11] has as its target T12, I-309 (CCL1) (UniProt P22362 23-96, limits assumed).
T12 construct: Bought chemokine
T12 sequence (looked up): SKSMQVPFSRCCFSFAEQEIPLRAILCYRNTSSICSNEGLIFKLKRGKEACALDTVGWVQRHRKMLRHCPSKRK
The test is described as follows: micro-array, biotinylated peptide on printed CK.

Another test deals with T13, IL-8 (CXCL8) (UniProt P10145 28-99, limits assumed).
T13 construct: also called IL-8(72aa); IL-8(77aa)
T13 sequence (looked up): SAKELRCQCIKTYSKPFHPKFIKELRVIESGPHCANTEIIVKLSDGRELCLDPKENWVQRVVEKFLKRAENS
The test is described as follows: SPR, ProteOn XPR36, GLM chip. The method, then:
(§1) Surface Plasmon Resonance (SPR): SPR was performed to make a quantitative determination of CK-peptide affinity. SPR measures the apparent equilibrium dissociation constant (KD) of the CK-binding peptide in the CK-peptide complex. KD is the ratio of the rate constants, Kd (1/s) and Kₐ (1/Ms), Kd/Kₐ. SPR was done with the ProteOn XPR36-Protein Interaction Array System (BioRad, Israel) with the Sensor Chip, GLM (sensor range 12-15 K response units).
(§2) Summary of Results: Affinity of Chemokine—Peptide Inteaction. […] The affinity with which peptides interact with CKs is relevant for low affinity reagents that are intended to engage multiple disease-related target proteins. SPR analysis was employed to determine the apparent equilibrium dissociation constants (KD) of CK-peptide complexes. […] Peptide binding in the micro-milli molar range is low affinity interaction. SPR analysis also corroborated differential binding measurements made by the micro-array analysis (FIG. 25b).

Test [12] addresses T14, Mig (CXCL9) (UniProt Q07325 23-125).
T14 construct: Bought chemokine
T14 sequence (looked up): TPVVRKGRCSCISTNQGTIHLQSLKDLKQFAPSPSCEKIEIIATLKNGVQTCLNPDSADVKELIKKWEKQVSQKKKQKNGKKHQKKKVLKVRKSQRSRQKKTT
The experiment in a line: SPR, ProteOn XPR36, GLM chip. The method, then:
as §1, §2

Test [13] has as its target T15, MIP-3α (CCL20) (UniProt P78556 27-96).
T15 construct: Bought chemokine
The test is described as follows: micro-array, biotinylated peptide on printed CK.

The next test deals with T16, RANTES (CCL5) (UniProt P13501 24-91).
T16 construct: Bought chemokine
T16 sequence (looked up): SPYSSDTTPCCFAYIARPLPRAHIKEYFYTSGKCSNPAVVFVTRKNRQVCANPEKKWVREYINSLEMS
The experiment in a line: micro-array, biotinylated peptide on printed CK.

Test [14] addresses T14, Mig (CXCL9). The experiment in a line: micro-array, biotinylated peptide on printed CK.
For test [15], the target named is T17, MCP-4 (CCL13) (UniProt Q99616 24-98).
T17 construct: Bought chemokine
The test is described as follows: micro-array, biotinylated peptide on printed CK.

The target in test [16] is T18, Exodus-2 (CCL21) (UniProt O00585 24-134).
T18 construct: Bought chemokine
T18 sequence (looked up): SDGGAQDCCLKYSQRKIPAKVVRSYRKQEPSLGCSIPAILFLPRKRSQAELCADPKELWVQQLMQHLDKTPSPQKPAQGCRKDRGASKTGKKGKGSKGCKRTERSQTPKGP
The experiment in a line: micro-array, biotinylated peptide on printed CK.

Test [17] addresses T15, MIP-3α (CCL20). The test is described as follows: micro-array, phage-presented peptide on printed CK. In outline:
(§3)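 Chemokine was printed at 25 and 50 μg/ml onto protein microarray slides, with BSA and M13 phage controls, then blocked 1 h at room temperature.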

In another test the target is T19, IP-10 (CXCL10) (UniProt P02778 22-98).
T19 construct: Bought chemokine
T19 sequence (looked up): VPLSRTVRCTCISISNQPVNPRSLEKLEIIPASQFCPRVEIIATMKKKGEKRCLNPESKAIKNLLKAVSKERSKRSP
The test is described as follows: micro-array, phage-presented peptide on printed CK. The method, boiled down: as §3

Test [18] deals with T1, Eotaxin (CCL11). The test is described as follows: micro-array, phage-presented peptide on printed CK. The method, boiled down: as §3
The target in test [19] is T2, BCA-1 (CXCL13). The experiment in a line: micro-array, phage-presented peptide on printed CK. In outline:
as §3

Test [20] concerns the target T3, Eotaxin 3 (CCL26). The experiment in a line: micro-array, phage-presented peptide on printed CK. In outline: as §3
Test [21] addresses T4, MCP-1 (CCL2). The test is described as follows: micro-array, phage-presented peptide on printed CK. The method, boiled down:
as §3

The target in test [22] is T6, Lymphotactin (XCL-1). The experiment in a line: micro-array, phage-presented peptide on printed CK. The method, boiled down: as §3
The target of the next test is T20, CTAC (CCL27) (UniProt Q9Y4X3 25-112).
T20 construct: Bought chemokine
T20 sequence (looked up): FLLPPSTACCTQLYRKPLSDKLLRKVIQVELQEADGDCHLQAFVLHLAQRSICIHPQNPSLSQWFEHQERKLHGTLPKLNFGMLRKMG
The experiment in a line: micro-array, phage-presented peptide on printed CK. The method, boiled down: as §3

Test [23] deals with T7, SDF-1α (CXCL12). The experiment in a line: micro-array, phage-presented peptide on printed CK. In outline:
as §3

For test [24], the target named is T14, Mig (CXCL9). The test is described as follows: micro-array, phage-presented peptide on printed CK. The method, boiled down:
as §3

The target of test [25] is T8, Eotaxin 2 (CCL24). The experiment in a line: micro-array, phage-presented peptide on printed CK. In outline: as §3
In another test the target is T21, MCP-2 (CCL8) (UniProt P80075 24-99).
T21 construct: Bought chemokine
T21 sequence (looked up): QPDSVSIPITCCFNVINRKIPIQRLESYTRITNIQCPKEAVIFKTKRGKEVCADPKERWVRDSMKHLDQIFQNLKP
The test is described as follows: micro-array, phage-presented peptide on printed CK. The method, boiled down:
as §3

The target of test [26] is T9, TECK (CCL25). The experiment in a line: micro-array, phage-presented peptide on printed CK. The method, boiled down:
as §3

Test [27] has as its target T10, I-TAC (CXCL11). The experiment in a line: micro-array, phage-presented peptide on printed CK. In outline:
as §3

The target of test [28] is T11, SDF-1β (CXCL12). The experiment in a line: micro-array, phage-presented peptide on printed CK. In outline: as §3
The target of test [29] is T17, MCP-4 (CCL13). The experiment in a line: micro-array, phage-presented peptide on printed CK. The method, boiled down: as §3
The target in test [30] is T12, I-309 (CCL1). The experiment in a line: micro-array, phage-presented peptide on printed CK. The method, boiled down:
as §3

The target in the next test is T22, MDC(69aa) (CCL22) (UniProt O00626 25-93).
T22 construct: Bought chemokine
T22 sequence (looked up): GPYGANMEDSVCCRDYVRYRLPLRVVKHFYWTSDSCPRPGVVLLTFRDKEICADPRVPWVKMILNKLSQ
The experiment in a line: micro-array, phage-presented peptide on printed CK. In outline:
as §3

Test [31] concerns the target T18, Exodus-2 (CCL21). The test is described as follows: micro-array, phage-presented peptide on printed CK. In outline: as §3

Ends that are not written are not given here. * marks the point of attachment. Biotin = O=C1N[C@H]2[C@H](CS[C@H]2CCCCC(=O)*)N1

T7 sequence (P48061 22-89 limits assumed): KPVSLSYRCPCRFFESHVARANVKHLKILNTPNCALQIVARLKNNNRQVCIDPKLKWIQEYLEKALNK
T11 sequence (P48061 22-93 limits assumed): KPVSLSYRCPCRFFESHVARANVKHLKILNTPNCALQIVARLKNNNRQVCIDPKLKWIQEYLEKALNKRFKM
T1 sequence (P51671 24-97 limits assumed): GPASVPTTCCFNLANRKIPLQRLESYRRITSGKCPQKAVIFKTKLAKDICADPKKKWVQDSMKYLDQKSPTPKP
T4 sequence (P13500 24-99 limits assumed): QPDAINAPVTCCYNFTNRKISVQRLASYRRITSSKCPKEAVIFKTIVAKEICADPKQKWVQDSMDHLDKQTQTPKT
T17 sequence (Q99616 24-98 limits assumed): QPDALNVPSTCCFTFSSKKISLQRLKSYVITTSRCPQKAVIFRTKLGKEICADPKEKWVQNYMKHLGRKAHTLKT
T15 sequence (P78556 27-96 limits assumed): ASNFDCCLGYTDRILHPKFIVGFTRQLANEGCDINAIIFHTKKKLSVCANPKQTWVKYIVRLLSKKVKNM

B1: Chemokine Binding Peptide 10 (CBP10) (peptide)
peptide: Biotin-FFGLNNC
On to B1, for which the binding result with Eotaxin (CCL11) [1], with BCA-1 (CXCL13) [2], in the test with Eotaxin 3 (CCL26) [3], in the test with GRO-β (CXCL2), in the test with Lymphotactin (XCL-1) [5] and with SDF-1α (CXCL12) [6] was “binds” in each case. Further, the binding result with Eotaxin 2 (CCL24) [7], in the test with TECK (CCL25) [8], in the test with I-TAC (CXCL11) [9], with SDF-1β (CXCL12) [10] and with I-309 (CCL1) [11] was “binds” throughout. The “Relative Fluorescence Units (RFU)” value in the test with MCP-1 (CCL2) [4] was > 600 RFU.

B2: CBP6 (VTTFFDYDYGAPC, from the N-terminal of CCR2) (peptide)
peptide: VTTFFDYDYGAPC
notes: Peptide used in SPR; also called CB6R2
A word on the Kd: it is the concentration at which binding is half-saturated. High values mean a looser complex, low ones a tighter complex. Consider B2, for which the figures for the Kd with IL-8 (CXCL8) and with Mig (CXCL9) [12] were 1060 µM and 28.2 µM, respectively.

B3: Chemokine Binding Peptide 5 (CBP5) (peptide)
peptide: Biotin-LFGNDCE
notes: Synthetic biotinylated peptide, not phage-presented
In the case of B3, the binding result in the test with MIP-3α (CCL20) [13], in the test with MCP-1 (CCL2) [4], in the test with SDF-1α (CXCL12) [6], with Mig (CXCL9) [14], with TECK (CCL25) [8] and in the test with SDF-1β (CXCL12) [10] was “binds” throughout. Besides, the binding result with I-309 (CCL1) [11] and with Exodus-2 (CCL21) [16] was “binds” throughout. In addition, the “Relative Fluorescence Units (RFU)” value in the test with Eotaxin (CCL11) [1], with Eotaxin 3 (CCL26) [3], with RANTES (CCL5) and with MCP-4 (CCL13) [15] was > 2500 RFU throughout.

B4: Phage-Presented Peptide 8.8 (Ph-p8.8) (peptide)
peptide: WVFGAAMCK
Take B4: the binding result in the test with MIP-3α (CCL20) [17], in the test with IP-10 (CXCL10), with Eotaxin (CCL11) [18], in the test with BCA-1 (CXCL13) [19], with Eotaxin 3 (CCL26) [20] and with Lymphotactin (XCL-1) [22] was “binds” in each case. Also, the binding result with CTAC (CCL27), with SDF-1α (CXCL12) [23], with Mig (CXCL9) [24], in the test with Eotaxin 2 (CCL24) [25], in the test with TECK (CCL25) [26] and with I-TAC (CXCL11) [27] was “binds” throughout. Moreover, the binding result with SDF-1β (CXCL12) [28], in the test with I-309 (CCL1) [30], with MDC(69aa) (CCL22) and with Exodus-2 (CCL21) [31] was “binds” each time. For the same molecule, the “Relative Fluorescence Units (RFU)” value with MCP-1 (CCL2) [21], with MCP-2 (CCL8) and in the test with MCP-4 (CCL13) [29] was > 15000 RFU throughout.
